US20220125892A1

Molecular target: mannose-6-phosphate receptor on human neuroblastoma cells (SH-SY5Y) (human)
Test: cell-based or functional assay

KUPTAKE, net M6PR mediated uptake by SH-SY5Y human neuroblastoma cells (4MUbetaGlc activity in lysates, hyperbolic fit): 1.9 nM
Substance: OxyGCase (uncapped and demannosylated recombinant human glucocerebrosidase variant produced in Yarrowia lipolytica) (enzyme)
